Results as given in article PMC12411348 (2025).

Target: recombinant human pVHL (CUSABIO) (human, UniProt P40337-1 1-213)
Assay: SPR

Chain of recombinant human pVHL (CUSABIO) (P40337 whole entry): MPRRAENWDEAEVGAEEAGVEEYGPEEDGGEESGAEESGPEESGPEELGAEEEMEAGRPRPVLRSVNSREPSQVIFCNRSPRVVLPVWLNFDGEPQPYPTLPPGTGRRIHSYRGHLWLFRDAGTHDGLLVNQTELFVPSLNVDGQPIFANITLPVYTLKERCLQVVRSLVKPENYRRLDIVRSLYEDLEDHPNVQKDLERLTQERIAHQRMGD

B1: recombinant TCF7L2(1–456) (domain or fragment)
chain: MPQLNGGGGDDLGANDELISFKDEGEQEEKSSENSSAERDLADVKSSLVNESETNQNSSSDSEAERRPPPRSESFRDKSRESLEEAAKRQDGGLFKGPPYPGYPFIMIPDLTSPYLPNGSLSPTARTLHFQSGSTHYSAYKTIEHQIAVQYLQMKWPLLDVQAGSLQSRQALKDARSPSPAHIVSNKVPVVQHPHHVHPLTPLITYSNEHFTPGNPPPHLPADVDPKTGIPRPPHPPDISPYYPLSPGTVGQIPHPLGWLVPQQGQPVYPITTGGFRHPYPTALTVNASMSRFPPHMVPPHHTLHTTGIPHPAIVTPTVKQESSQSDVGSLHSSKHQDSKKEEEKKKPHIKKPLNAFMLYMKEMRAKVVAECTLKESAAINQILGRRWHALSREEQAKYYELARKERQLHMQLYPGWSARDNYGKKKKRKRDKQPGETNEHSECFLNPCLSLPPIT
Kd: 806 nM
